# Columns and labels:
# Test in all cases: holdup assay
# Parameters in all cases: key: below the threshold = too weak to quantify, mostly under pKd 3.1 to 4
# [1] = molecular target: T1, APBA1_1, Q02410
# T1 sequence (Q02410 651-752, limits assumed, looked up): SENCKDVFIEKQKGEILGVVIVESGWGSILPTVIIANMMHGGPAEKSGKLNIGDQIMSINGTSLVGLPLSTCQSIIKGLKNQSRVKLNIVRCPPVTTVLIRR
# [2] = molecular target: ARHGEF12, Q9NZN5-2
# [3] = molecular target: DLG1_2, Q12959
# [4] = molecular target: DLG2_3, Q15700
# [5] = molecular target: DLG5_1, Q8TDM6
# DLG5_1, Q8TDM6, sequence (Q8TDM6 617-713): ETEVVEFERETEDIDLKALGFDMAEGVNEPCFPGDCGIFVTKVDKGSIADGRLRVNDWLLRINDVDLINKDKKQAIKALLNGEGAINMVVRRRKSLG
# [6] = molecular target: T2, DVL3, Q92997
# T2 sequence (Q92997 244-331, limits assumed, looked up): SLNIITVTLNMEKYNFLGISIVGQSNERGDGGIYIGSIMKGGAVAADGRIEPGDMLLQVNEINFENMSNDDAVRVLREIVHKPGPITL
# [7] = molecular target: T3, GRIP1_2, Q9Y3R0
# T3 sequence (Q9Y3R0 145-248, limits assumed, looked up): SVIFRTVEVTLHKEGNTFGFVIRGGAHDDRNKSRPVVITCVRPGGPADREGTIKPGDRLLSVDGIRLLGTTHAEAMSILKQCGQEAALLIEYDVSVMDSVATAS
# [8] = molecular target: GRIP2_3, Q9C0E4
# GRIP2_3, Q9C0E4, sequence (Q9C0E4 238-339): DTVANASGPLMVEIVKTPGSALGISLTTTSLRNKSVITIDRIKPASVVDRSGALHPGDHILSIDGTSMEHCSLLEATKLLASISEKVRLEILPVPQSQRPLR
# [9] = molecular target: T4, HTRA4, P83105
# T4 sequence (P83105 378-476, limits assumed, looked up): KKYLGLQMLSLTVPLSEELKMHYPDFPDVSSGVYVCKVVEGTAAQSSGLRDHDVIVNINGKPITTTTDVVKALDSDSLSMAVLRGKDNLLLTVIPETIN
# [10] = molecular target: IL16_1, Q14005
# IL16_1, Q14005, sequence (Q14005 210-306): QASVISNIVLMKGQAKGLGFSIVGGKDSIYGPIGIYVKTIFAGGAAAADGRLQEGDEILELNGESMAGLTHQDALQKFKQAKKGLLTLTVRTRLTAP
# [11] = molecular target: Inadl_10, Q8NI35
# Inadl_10, Q8NI35, sequence (Q8NI35 1673-1763): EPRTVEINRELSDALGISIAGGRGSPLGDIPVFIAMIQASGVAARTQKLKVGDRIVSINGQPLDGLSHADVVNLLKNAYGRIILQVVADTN
# [12] = molecular target: Inadl_8, Q8NI35
# Inadl_8, Q8NI35, sequence (Q8NI35 1425-1530): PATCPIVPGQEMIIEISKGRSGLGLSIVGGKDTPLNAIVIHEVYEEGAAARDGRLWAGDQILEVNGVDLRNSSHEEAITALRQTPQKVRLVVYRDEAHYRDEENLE
# [13] = molecular target: LIMK2, P53671
# LIMK2, P53671, sequence (P53671 143-248): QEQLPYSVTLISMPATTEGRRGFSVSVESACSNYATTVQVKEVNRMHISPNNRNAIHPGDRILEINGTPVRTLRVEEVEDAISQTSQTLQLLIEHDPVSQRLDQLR
# [14] = molecular target: T5, LIN7C, Q9NUP9
# T5 sequence (Q9NUP9 88-185, limits assumed, looked up): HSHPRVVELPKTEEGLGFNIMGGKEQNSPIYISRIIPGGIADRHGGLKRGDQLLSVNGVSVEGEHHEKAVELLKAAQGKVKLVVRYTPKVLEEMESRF
# [15] = molecular target: MAGI2_2, Q86UL8
# MAGI2_2, Q86UL8, sequence (Q86UL8 410-522): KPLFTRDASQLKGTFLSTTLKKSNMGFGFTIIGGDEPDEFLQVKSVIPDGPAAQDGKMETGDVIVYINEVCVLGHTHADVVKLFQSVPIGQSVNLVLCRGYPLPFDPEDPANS
# [16] = molecular target: MAGI2_5, Q86UL8
# MAGI2_5, Q86UL8, sequence (Q86UL8 915-1017): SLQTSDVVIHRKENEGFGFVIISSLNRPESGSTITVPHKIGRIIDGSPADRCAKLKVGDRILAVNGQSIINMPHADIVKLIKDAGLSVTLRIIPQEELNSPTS
# [17] = molecular target: MAST2, Q6P0Q8
# MAST2, Q6P0Q8, sequence (Q6P0Q8 1099-1202): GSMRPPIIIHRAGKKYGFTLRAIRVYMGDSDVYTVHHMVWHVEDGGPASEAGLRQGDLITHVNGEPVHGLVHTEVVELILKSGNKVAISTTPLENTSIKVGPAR
# [18] = molecular target: NHERF4_1, Q86UT5-2
# NHERF4_1, Q86UT5-2, sequence (Q86UT5 other isoform, or with tags, fused parts or gaps): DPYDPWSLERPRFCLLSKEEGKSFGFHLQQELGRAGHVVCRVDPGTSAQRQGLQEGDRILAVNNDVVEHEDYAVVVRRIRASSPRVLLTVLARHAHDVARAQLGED
# [19] = molecular target: NHERF4_4, Q86UT5
# NHERF4_4, Q86UT5, sequence (Q86UT5 464-550): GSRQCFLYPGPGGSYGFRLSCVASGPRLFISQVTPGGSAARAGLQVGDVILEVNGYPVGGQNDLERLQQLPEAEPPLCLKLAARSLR
# [20] = molecular target: T6, RAPGEF6, Q8TEU7
# T6 sequence (Q8TEU7 525-625, limits assumed, looked up): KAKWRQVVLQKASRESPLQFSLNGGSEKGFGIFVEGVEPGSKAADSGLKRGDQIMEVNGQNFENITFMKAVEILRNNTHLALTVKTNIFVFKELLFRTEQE
# [21] = molecular target: T7, RHPN1, Q8TCX5
# T7 sequence (Q8TCX5 508-602, limits assumed, looked up): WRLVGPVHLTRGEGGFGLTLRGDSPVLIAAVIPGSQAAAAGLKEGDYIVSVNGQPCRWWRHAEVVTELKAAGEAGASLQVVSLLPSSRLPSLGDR
# [22] = molecular target: T8, SNTA1, Q13424
# T8 sequence (Q13424 82-180, limits assumed, looked up): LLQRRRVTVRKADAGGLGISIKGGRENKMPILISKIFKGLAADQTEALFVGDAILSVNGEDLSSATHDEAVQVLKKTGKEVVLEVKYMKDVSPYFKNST
# [23] = molecular target: T9, SNTB1, Q13884
# T9 sequence (Q13884 107-205, limits assumed, looked up): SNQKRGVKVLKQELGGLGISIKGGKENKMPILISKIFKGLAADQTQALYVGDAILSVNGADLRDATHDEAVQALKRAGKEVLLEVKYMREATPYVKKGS
# [24] = molecular target: T10, SNTG1, Q9NSN8
# T10 sequence (Q9NSN8 52-150, limits assumed, looked up): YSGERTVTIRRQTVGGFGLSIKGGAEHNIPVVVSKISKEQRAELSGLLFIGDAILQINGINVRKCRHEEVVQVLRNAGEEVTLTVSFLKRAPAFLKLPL
# [25] = molecular target: TJP2_1, Q9UDY2
# TJP2_1, Q9UDY2, sequence (Q9UDY2 24-128): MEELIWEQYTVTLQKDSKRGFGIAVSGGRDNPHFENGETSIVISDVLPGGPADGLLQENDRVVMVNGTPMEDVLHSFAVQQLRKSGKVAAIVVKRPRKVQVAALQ
# [26] = molecular target: T11, TX1BP3, O14907
# T11 sequence (O14907 10-122, limits assumed, looked up): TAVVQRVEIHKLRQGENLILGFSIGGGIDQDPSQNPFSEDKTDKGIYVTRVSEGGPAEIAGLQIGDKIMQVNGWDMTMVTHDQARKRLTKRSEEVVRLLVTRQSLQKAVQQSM
# [27] = plain residues with an end cap or a label only (N-terminal biotin on a linker: ttds)
# [28] = plain residues with an end cap or a label only (N-terminal biotin on a linker: ado-ado)
# [29] = plain residues with an end cap or a label only (N-terminal biotin on a linker: ahx)
# DLG1_2, Q12959, sequence (Q12959 314-412): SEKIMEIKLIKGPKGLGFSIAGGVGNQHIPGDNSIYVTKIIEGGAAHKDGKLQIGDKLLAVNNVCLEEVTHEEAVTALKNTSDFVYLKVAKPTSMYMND
# ARHGEF12, Q9NZN5-2, sequence (Q9NZN5 other isoform, or with tags, fused parts or gaps): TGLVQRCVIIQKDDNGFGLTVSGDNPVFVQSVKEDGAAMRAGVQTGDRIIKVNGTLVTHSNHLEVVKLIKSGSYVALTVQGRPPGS
binder,measurement,setting,value
"LCALPKVTTV [AGMAT, Q9BSE5]",pKd,[1]; [27],below the threshold
same,pKd,[2]; [27],4.67
same,pKd,[3]; [27],5.87
same,pKd,[4]; [27],4.64
same,pKd,[5]; [27],below the threshold
same,pKd,[6]; [27],below the threshold
same,pKd,[7]; [27],below the threshold
same,pKd,[8]; [27],below the threshold
same,pKd,[9]; [27],4.66
same,pKd,[10]; [27],4.06
same,pKd,[11]; [27],below the threshold
same,pKd,[12]; [27],4.82
same,pKd,[13]; [27],below the threshold
same,pKd,[14]; [27],4.38
same,pKd,[15]; [27],4.18
same,pKd,[16]; [27],3.63
same,pKd,[17]; [27],4.88
same,pKd,[18]; [27],below the threshold
same,pKd,[19]; [27],below the threshold
same,pKd,[20]; [27],3.63
same,pKd,[21]; [27],4.24
same,pKd,[22]; [27],4.81
same,pKd,[23]; [27],4.73
same,pKd,[24]; [27],4.39
same,pKd,[25]; [27],3.91
same,pKd,[26]; [27],4.07
"FVHPILQSAV [PRKCA, P17252]",pKd,[1]; [28],below the threshold
same,pKd,[2]; [28],4.22
same,pKd,[3]; [28],4.52
same,pKd,[4]; [28],3.74
same,pKd,[5]; [28],below the threshold
same,pKd,[6]; [28],below the threshold
same,pKd,[7]; [28],below the threshold
same,pKd,[8]; [28],below the threshold
same,pKd,[9]; [28],below the threshold
same,pKd,[10]; [28],4.33
same,pKd,[11]; [28],below the threshold
same,pKd,[12]; [28],4.71
same,pKd,[13]; [28],below the threshold
same,pKd,[14]; [28],3.52
same,pKd,[15]; [28],3.9
same,pKd,[16]; [28],4.73
same,pKd,[17]; [28],5.35
same,pKd,[18]; [28],3.78
same,pKd,[19]; [28],below the threshold
same,pKd,[20]; [28],below the threshold
same,pKd,[21]; [28],4.18
same,pKd,[22]; [28],3.91
same,pKd,[23]; [28],4.32
same,pKd,[24]; [28],4.35
same,pKd,[25]; [28],below the threshold
same,pKd,[26]; [28],5.09
"QFQYAKESYI [TAGAP, Q8N103]",pKd,[1]; [27],below the threshold
same,pKd,[2]; [27],3.91
same,pKd,[3]; [27],4.85
same,pKd,[4]; [27],3.95
same,pKd,[5]; [27],below the threshold
same,pKd,[6]; [27],below the threshold
same,pKd,[7]; [27],below the threshold
same,pKd,[8]; [27],below the threshold
same,pKd,[9]; [27],below the threshold
same,pKd,[10]; [27],4.65
same,pKd,[11]; [27],below the threshold
same,pKd,[12]; [27],3.78
same,pKd,[13]; [27],below the threshold
same,pKd,[14]; [27],4.21
same,pKd,[15]; [27],3.5
same,pKd,[16]; [27],below the threshold
same,pKd,[17]; [27],4.69
same,pKd,[18]; [27],below the threshold
same,pKd,[19]; [27],below the threshold
same,pKd,[20]; [27],below the threshold
same,pKd,[21]; [27],4.68
same,pKd,[22]; [27],4.97
same,pKd,[23]; [27],4.92
same,pKd,[24]; [27],4.53
same,pKd,[25]; [27],4.43
same,pKd,[26]; [27],4.13
"SRRPRTETQV [HPV31-E6, P17386]",pKd,[1]; [27],below the threshold
same,pKd,[2]; [27],3.86
same,pKd,[3]; [27],5.79
same,pKd,[4]; [27],5.1
same,pKd,[5]; [27],below the threshold
same,pKd,[6]; [27],below the threshold
same,pKd,[7]; [27],below the threshold
same,pKd,[8]; [27],below the threshold
same,pKd,[9]; [27],below the threshold
same,pKd,[10]; [27],below the threshold
same,pKd,[11]; [27],below the threshold
same,pKd,[12]; [27],below the threshold
same,pKd,[13]; [27],below the threshold
same,pKd,[14]; [27],3.93
same,pKd,[15]; [27],6.38
same,pKd,[16]; [27],3.89
same,pKd,[17]; [27],5.23
same,pKd,[18]; [27],below the threshold
same,pKd,[19]; [27],below the threshold
same,pKd,[20]; [27],below the threshold
same,pKd,[21]; [27],3.74
same,pKd,[22]; [27],4.29
same,pKd,[23]; [27],4.15
same,pKd,[24]; [27],4.23
same,pKd,[25]; [27],3.66
same,pKd,[26]; [27],4.61
"TIVSWPGTFL [LNX1, Q8TBB1]",pKd,[1]; [29],below the threshold
same,pKd,[2]; [29],below the threshold
same,pKd,[3]; [29],below the threshold
same,pKd,[4]; [29],below the threshold
same,pKd,[5]; [29],below the threshold
same,pKd,[6]; [29],below the threshold
same,pKd,[7]; [29],below the threshold
same,pKd,[8]; [29],below the threshold
same,pKd,[9]; [29],4
same,pKd,[10]; [29],below the threshold
same,pKd,[11]; [29],4.25
same,pKd,[12]; [29],below the threshold
same,pKd,[13]; [29],below the threshold
same,pKd,[14]; [29],3.47
same,pKd,[15]; [29],below the threshold
same,pKd,[16]; [29],below the threshold
same,pKd,[17]; [29],4.59
same,pKd,[18]; [29],3.47
same,pKd,[19]; [29],below the threshold
same,pKd,[20]; [29],below the threshold
same,pKd,[21]; [29],4.17
same,pKd,[22]; [29],below the threshold
same,pKd,[23]; [29],below the threshold
same,pKd,[24]; [29],below the threshold
same,pKd,[25]; [29],below the threshold
same,pKd,[26]; [29],4.39
"GKKSVKHSKI [ACOT6, Q3I5F7]",pKd,[1]; [28],below the threshold
same,pKd,[2]; [28],3.92
same,pKd,[3]; [28],3.97
same,pKd,[4]; [28],3.65
same,pKd,[5]; [28],below the threshold
same,pKd,[6]; [28],below the threshold
same,pKd,[7]; [28],below the threshold
same,pKd,[8]; [28],below the threshold
same,pKd,[9]; [28],3.7
same,pKd,[10]; [28],below the threshold
same,pKd,[11]; [28],below the threshold
same,pKd,[12]; [28],3.88
same,pKd,[13]; [28],below the threshold
same,pKd,[14]; [28],3.48
same,pKd,[15]; [28],3.96
same,pKd,[16]; [28],below the threshold
same,pKd,[17]; [28],4.03
same,pKd,[18]; [28],below the threshold
same,pKd,[19]; [28],3.76
same,pKd,[20]; [28],below the threshold
same,pKd,[21]; [28],below the threshold
same,pKd,[22]; [28],3.55
same,pKd,[23]; [28],3.92
same,pKd,[24]; [28],below the threshold
same,pKd,[25]; [28],below the threshold
same,pKd,[26]; [28],below the threshold

# From article PMC9482650, “Quantitative fragmentomics allow affinity mapping of interactomes” (Nature Communications, 2022)
